Results taken from patent US20080248008A1, “Inhibitors of Protein Kinase a Anchoring” (priority 2004, published 2008).
Entries after “also recorded” stand apart in the source; their conditions may differ. Ends that are not written are not given here.

Key:
RI (A98S) = target: T1, RI (A98S) (Bos taurus, UniProt P00514, A98S); test: R-overlay (solid-phase binding) of 32P-labelled RI on membrane-synthesized peptides; design: species or system bovine; details: for RI binding (RI-32P-overlay, autoradiography): peptides on membrane, qualitative
T1 construct: made in house; host or cells: E. coli BL21 (B121 [sic])
Protocol: Autospot Peptide Array. Peptide arrays were synthesized on cellulose paper by using an Autospot Robot ASP222 (ABiMED, Langenfeld, Germany) as described (Frank, R., 1992, Tetrahedron 48, 123-132) or Multipep automated peptide synthesizer (INTAVIS Bioanalytical Instruments AG, Koeln, Germany) as described (Frank, R., 1992, Tetrahedron 48, 123-132).
R-overlay. R-overlays were conducted as described, using ^32P-labeled recombinant murine RII (Hausken, Z. E., et al., 1998 in Protein Targeting Protocols, ed. Clegg, R. A. (Humana, Totowa, N.J.), Vol. 88, pp. 47-64) or recombinant bovine RI (A98S) or by cold RI-overlay where bound RIα was detected by Western blot. Cold RI-overlay was performed by incubating the membranes with 250 nM RI overnight at 4° C., then the membranes were washed five times in TBST for 5 min. Detection of RI was performed using an anti-RI rabbit polyclonal antibody (Santa Cruz) at a concentration of 0.2 μg/μl for 1 hour at 4° C. Then the membranes were washed five times for 5 minutes in PBS followed by incubation with HRP-conjugated anti-rabbit IgGs (1:5000) for 1 hour at 4° C. The membranes were washed in PBS as described above before detection by Supersignal West Dura Extended Duration Substrate (Pierce).
Densitometric analysis. The densitometric analysis was performed using Scion Image (www.scioncorp.com) (Scion Coorperation, Mo., USA) or Quantity One version 4.5.0, (BioRad).

PKA-RIIα [1] = target: T2, PKA-RIIα (Homo sapiens, UniProt P13861); test: Immunofluorescence of PKA-RIIα at centrosomes in human T cells; type: cell-based; design: endogenous in cells; host or cells: human peripheral blood CD3+ T cells; details: human peripheral blood T cells
Protocol: Blots were developed by using Supersignal West Pico substrate (Pierce). For immunofluorescence polyclonal and monoclonal antibodies against RIα (Biogenesis), RIIα (Transduction laboratories) and AKAP450 (A24, Tasken et al., 2001, J. Biol. Chem, 276:21999-22002) were used as primary antibodies. Secondary antibodies (all Molecular Probes) were Alexa-488 conjugated anti-mouse and anti-rabbit IgG (both goat) and Alexa-555 anti-rabbit IgG (goat).
Immunofluorescence analysis of cells was performed as previously described (Collas, P. et al., 1996, J. Cell Biol. 135, 1715-1725). RI was detected by using an anti-RI monoclonal antibody (Transduction Laboratories) as a primary antibody at a […] and Alexa-488 as a secondary antibody (1:600, Goat anti Mouse IgGs, Molecular Probes). Immunofluorescence was performed on Y1 cells attached to collagen/fibronectin coated coverslips. Mitochondria were stained using MitoTracker Red CMXRos (Molecular Probes) in fresh medium with incubation at 37° C. for 30 min prior to cell fixation. All cells were washed in PBS, fixed with 3% paraformaldehyde and permeabilised using 0.1% Triton X-100. […] Alternatively, fluorescently labeled cells were examined using a Leica TCS SP1 confocal fluorescence microscope (Leica, Heidelberg, Germany) equipped with an Ar (488 nm) and two He/Ne (543 and 633 nm) laser lines. […]

PKA-RIIα [2] = target: T2, PKA-RIIα; test: Displacement of PKA-RII from the particulate fraction in T cells; type: cell-based; design: endogenous in cells; host or cells: human peripheral blood CD3+ T cells; details: 25 μM or 50 μM
Protocol: Displacement of PKA-RII from the particulate Fraction in T-cells. Negatively selected CD3^+ T-cells (20×10^6/3 ml/well) were cultured in 6-well plates with 0-50 μM Arg11-SuperAKAPIS (or 0-50 μM M3-Arg11) for 12 hours. Cells were lysed in 250 μl lysis buffer (50 mM Tris pH 7.4, 100 mM NaCl, 5 mM EDTA, 50 mM NaF, 10 mM Na-pyrofosfat, 1 mM Na3VO4, 1 mM PMSF, 0.7% triton X-100) and centrifuged at 14 000×g for 10 min. The sedimented proteins were resuspended in loading dye before being resolved by SDS/PAGE and detected by immunoblotting.
To assess the effect of MEME3-Arg11 on anchoring of PKA type II, T cells were treated with MEME3-Arg11 or Arg11-super-AKAP-is (as a positive control) and particulate fractions were isolated, followed by 10% PAGE and blotting onto a PVDF membrane (fraction no. 2-4, FIG. 17 in upper panel) and analysed by immunoblotting using antibodies against PKA-RIIα (FIG. 17, upper panel). The levels of PKA-RIIα in the particulate fractions were measured by densitometry of the autoradiograms (lower panel). The level of PKA-RIIα was set relative to that of the internal standard PKCα.

T1 sequence (P00514 whole entry A98S): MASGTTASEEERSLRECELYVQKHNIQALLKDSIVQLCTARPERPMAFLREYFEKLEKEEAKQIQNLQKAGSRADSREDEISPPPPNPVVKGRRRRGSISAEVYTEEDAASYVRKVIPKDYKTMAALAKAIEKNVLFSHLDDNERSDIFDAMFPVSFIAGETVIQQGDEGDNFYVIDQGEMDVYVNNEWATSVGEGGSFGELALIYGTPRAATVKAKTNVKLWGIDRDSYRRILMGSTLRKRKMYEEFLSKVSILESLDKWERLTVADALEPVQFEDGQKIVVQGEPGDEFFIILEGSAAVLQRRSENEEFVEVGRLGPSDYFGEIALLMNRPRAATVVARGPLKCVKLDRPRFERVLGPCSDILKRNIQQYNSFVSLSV
T2 sequence (P13861 whole entry): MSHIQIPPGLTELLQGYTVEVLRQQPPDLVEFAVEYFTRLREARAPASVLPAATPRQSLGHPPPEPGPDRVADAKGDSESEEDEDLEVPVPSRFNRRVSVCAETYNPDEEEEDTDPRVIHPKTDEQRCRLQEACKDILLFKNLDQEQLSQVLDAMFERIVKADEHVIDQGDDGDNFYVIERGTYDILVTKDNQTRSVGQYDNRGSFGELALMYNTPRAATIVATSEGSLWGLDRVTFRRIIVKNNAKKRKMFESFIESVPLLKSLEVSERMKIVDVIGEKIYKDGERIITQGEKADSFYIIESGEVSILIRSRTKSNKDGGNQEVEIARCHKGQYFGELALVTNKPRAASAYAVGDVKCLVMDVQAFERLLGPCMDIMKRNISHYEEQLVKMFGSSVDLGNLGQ

LKQYANQLASQVIKEATE [PDSM]
RI binding (RI-32P-overlay, autoradiography) (RI (A98S)): same RI binding affinity as the full length PDSM sequence; also recorded: much higher RIα affinity compare to that of PV-38; also recorded: higher binding to RIα

Arg11-super-AKAP-is: RIIα specific peptide, SuperAKAPIS (QIEYVAKQIVDYAIHQA) with eleven arginine residues (also: eleven arginine residues attached (Arg11), place not given here) [reference compound]
displacement of PKA-RIIα from centrosomes (PKA-RIIα [1]): specifically displaced PKA-RIIα | reduction of PKA-RIIα in particulate fraction (PKA-RIIα [2]): approximately 80%

DELKQYANQLASQVIKEATE [PDSM consensus sequence]
RI binding (RI-32P-overlay, autoradiography) (RI (A98S)): higher affinity for RI than the other R-binding motifs

LEQYANQLADQIIKEATe [E18e]
R-binding of D-amino acid derivatives (RIα and RIIα overlay) (RI (A98S); peptidomimetics on membrane): accepted
